# Tested on: Escherichia coli TOP10
# Assay: shrunken log2 fold change of peptide-encoding DNA abundance (4.5 h post-induction vs induction); higher = less antimicrobial activity (less host growth inhibition)
# Conditions: time post-induction: 4.5 h; library: site-saturation at positions 5, 18, 19, 20
# 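Note: peptides expressed intracellularly from a pBAD plasmid library in pooled LB shake-flask culture, induced with 0.3% L-arabinose, DNA abundance read by NGS, three biological replicates, DESeq2 with apeglm shrinkage.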
row,Sequence,shrunken log2 fold change
1,RRIRWRPPRLPRPRPRPEKWPRP,0.0948
2,RRIRIRPPRLPRPRPRPGVKPRP,-0.279
3,RRIRKRPPRLPRPRPRPFCWPRP,0.48
4,RRIRMRPPRLPRPRPRPKSNPRP,0.815
5,RRIRGRPPRLPRPRPRPTFWPRP,1.51
6,RRIRVRPPRLPRPRPRPWWKPRP,0.0375
7,RRIRVRPPRLPRPRPRPMAYPRP,-0.012
8,RRIRARPPRLPRPRPRPVVQPRP,0.511
9,RRIRHRPPRLPRPRPRPGYPPRP,-0.0459
10,RRIRKRPPRLPRPRPRPWNVPRP,0.0194
11,RRIRERPPRLPRPRPRPNVWPRP,0.133
12,RRIRCRPPRLPRPRPRPQEMPRP,-0.627
13,RRIRNRPPRLPRPRPRPYLHPRP,-0.429
14,RRIRNRPPRLPRPRPRPESNPRP,0.0856
15,RRIRVRPPRLPRPRPRPFFCPRP,-0.00678
16,RRIRQRPPRLPRPRPRPAIHPRP,0.135
17,RRIRKRPPRLPRPRPRPAPRPRP,1.26
18,RRIRSRPPRLPRPRPRPCPVPRP,-0.0785
19,RRIRKRPPRLPRPRPRPPLAPRP,1.06
20,RRIRMRPPRLPRPRPRPQWAPRP,-0.0175
21,RRIRPRPPRLPRPRPRPLQFPRP,-0.178
22,RRIRYRPPRLPRPRPRPGMQPRP,-0.224
23,RRIRHRPPRLPRPRPRPTKRPRP,-0.0644
24,RRIRMRPPRLPRPRPRPRTDPRP,-0.0668
25,RRIRRRPPRLPRPRPRPRYGPRP,0.0155

row,Sequence,shrunken log2 fold change
1,RRIRKRPPRLPRPRPRPMIRPRP,0.134
2,RRIRTRPPRLPRPRPRPNVLPRP,-0.0117
3,RRIRCRPPRLPRPRPRPGIIPRP,-0.00738
4,RRIRFRPPRLPRPRPRPQVAPRP,0.147
5,RRIRMRPPRLPRPRPRPQKIPRP,0.255
6,RRIRLRPPRLPRPRPRPRDKPRP,0.133
7,RRIRMRPPRLPRPRPRPEWIPRP,-0.0024
8,RRIRYRPPRLPRPRPRPTPKPRP,0.167
9,RRIRFRPPRLPRPRPRPFIVPRP,-0.772
10,RRIRYRPPRLPRPRPRPQSPPRP,-0.0354
11,RRIRDRPPRLPRPRPRPVVWPRP,0.902
12,RRIRARPPRLPRPRPRPLRDPRP,0.948
13,RRIRWRPPRLPRPRPRPTDEPRP,0.582
14,RRIRYRPPRLPRPRPRPTINPRP,-1.41
15,RRIRARPPRLPRPRPRPCVVPRP,0.198
16,RRIRNRPPRLPRPRPRPLTPPRP,0.136
17,RRIRPRPPRLPRPRPRPFNSPRP,-0.764
18,RRIRARPPRLPRPRPRPMNSPRP,-0.279
19,RRIRCRPPRLPRPRPRPSIDPRP,-0.505
20,RRIRNRPPRLPRPRPRPFDVPRP,-0.0429
21,RRIRGRPPRLPRPRPRPLKQPRP,-0.115
22,RRIRFRPPRLPRPRPRPTIAPRP,-0.27
23,RRIRQRPPRLPRPRPRPAFVPRP,-0.0399
24,RRIRWRPPRLPRPRPRPYLTPRP,-0.089
25,RRIRTRPPRLPRPRPRPHFFPRP,-0.161

row,Sequence,shrunken log2 fold change
1,RRIRIRPPRLPRPRPRPLIIPRP,-0.652
2,RRIRIRPPRLPRPRPRPWPPPRP,0.0965
3,RRIRGRPPRLPRPRPRPFCAPRP,0.836
4,RRIRSRPPRLPRPRPRPVSEPRP,-0.125
5,RRIRMRPPRLPRPRPRPNVRPRP,0.0272
6,RRIRGRPPRLPRPRPRPKCEPRP,1.14
7,RRIRPRPPRLPRPRPRPETKPRP,0.00908
8,RRIRARPPRLPRPRPRPEDSPRP,0.32
9,RRIRNRPPRLPRPRPRPTKCPRP,-0.16
10,RRIRERPPRLPRPRPRPVMEPRP,-0.0566
11,RRIRQRPPRLPRPRPRPEDCPRP,0.0138
12,RRIRERPPRLPRPRPRPYMSPRP,-0.0135
13,RRIRARPPRLPRPRPRPDWDPRP,0.341
14,RRIRERPPRLPRPRPRPTRHPRP,0.157
15,RRIRCRPPRLPRPRPRPFMWPRP,-0.165
16,RRIRARPPRLPRPRPRPKNGPRP,0.246
17,RRIRKRPPRLPRPRPRPYGLPRP,0.0165
18,RRIRVRPPRLPRPRPRPCMPPRP,0.112
19,RRIRLRPPRLPRPRPRPKHEPRP,0.053
20,RRIRIRPPRLPRPRPRPCGKPRP,-0.025
21,RRIRARPPRLPRPRPRPYSWPRP,-0.0849
22,RRIRFRPPRLPRPRPRPQGTPRP,-0.068
23,RRIRHRPPRLPRPRPRPAYVPRP,-0.102
24,RRIRSRPPRLPRPRPRPYIFPRP,-0.683
25,RRIRKRPPRLPRPRPRPAMQPRP,0.115

row,Sequence,shrunken log2 fold change
1,RRIRYRPPRLPRPRPRPHQLPRP,-0.191
2,RRIRVRPPRLPRPRPRPWSLPRP,-0.0384
3,RRIRCRPPRLPRPRPRPPVHPRP,-0.112
4,RRIRHRPPRLPRPRPRPLGMPRP,-0.227
5,RRIRKRPPRLPRPRPRPCMEPRP,0.0223
6,RRIRGRPPRLPRPRPRPIKDPRP,0.309
7,RRIRSRPPRLPRPRPRPISPPRP,-0.402
8,RRIRDRPPRLPRPRPRPFHCPRP,-0.194
9,RRIRYRPPRLPRPRPRPQNHPRP,-0.61
10,RRIRQRPPRLPRPRPRPLEWPRP,0.0921
11,RRIRTRPPRLPRPRPRPIMIPRP,-0.163
12,RRIRKRPPRLPRPRPRPYKGPRP,-0.185
13,RRIRCRPPRLPRPRPRPQAFPRP,-0.00585
14,RRIRARPPRLPRPRPRPLVGPRP,0.321
15,RRIRHRPPRLPRPRPRPNEEPRP,-0.00146
16,RRIRARPPRLPRPRPRPSYVPRP,-0.232
17,RRIRERPPRLPRPRPRPDLNPRP,-0.322
18,RRIRHRPPRLPRPRPRPQWEPRP,-0.0718
19,RRIRMRPPRLPRPRPRPQNKPRP,-0.176
20,RRIRWRPPRLPRPRPRPVNWPRP,0.537
21,RRIRQRPPRLPRPRPRPWSCPRP,-0.462
22,RRIRVRPPRLPRPRPRPRLNPRP,-0.00875
23,RRIRLRPPRLPRPRPRPGNYPRP,0.0343
24,RRIRPRPPRLPRPRPRPVKWPRP,0.00231
25,RRIRGRPPRLPRPRPRPCFDPRP,0.299

row,Sequence,shrunken log2 fold change
1,RRIRQRPPRLPRPRPRPQSTPRP,-0.631
2,RRIRKRPPRLPRPRPRPNCCPRP,0.179
3,RRIRHRPPRLPRPRPRPGQQPRP,-0.028
4,RRIRMRPPRLPRPRPRPSHHPRP,-0.171
5,RRIRGRPPRLPRPRPRPYQCPRP,-0.0235
6,RRIRERPPRLPRPRPRPMEIPRP,-0.221
7,RRIRARPPRLPRPRPRPREMPRP,0.563
8,RRIRRRPPRLPRPRPRPSEVPRP,1.94
9,RRIRFRPPRLPRPRPRPYVWPRP,0.109
10,RRIRMRPPRLPRPRPRPFFMPRP,-0.121
11,RRIRFRPPRLPRPRPRPNEEPRP,-0.0458
12,RRIRMRPPRLPRPRPRPDTKPRP,0.0742
13,RRIRFRPPRLPRPRPRPFLCPRP,-0.313
14,RRIRARPPRLPRPRPRPGPVPRP,0.611
15,RRIRQRPPRLPRPRPRPTPNPRP,0.333
16,RRIRGRPPRLPRPRPRPRRKPRP,0.742
17,RRIRVRPPRLPRPRPRPFLNPRP,-0.148
18,RRIRYRPPRLPRPRPRPIHRPRP,-0.0635
19,RRIRHRPPRLPRPRPRPIYPPRP,-0.158
20,RRIRSRPPRLPRPRPRPVGVPRP,0.0685
21,RRIRWRPPRLPRPRPRPSHAPRP,-0.0866
22,RRIRGRPPRLPRPRPRPTCNPRP,0.7
23,RRIRHRPPRLPRPRPRPPFPPRP,0.0224
24,RRIRQRPPRLPRPRPRPEMWPRP,0.483
25,RRIRSRPPRLPRPRPRPPMNPRP,-0.347

row,Sequence,shrunken log2 fold change
1,RRIRIRPPRLPRPRPRPRCYPRP,-0.586
2,RRIRVRPPRLPRPRPRPDRCPRP,0.0141
3,RRIRGRPPRLPRPRPRPQHTPRP,0.588
4,RRIRERPPRLPRPRPRPIFLPRP,-0.288
5,RRIRERPPRLPRPRPRPKTPPRP,0.0131
6,RRIRVRPPRLPRPRPRPMERPRP,0.0131
7,RRIRQRPPRLPRPRPRPSDKPRP,-0.341
8,RRIRERPPRLPRPRPRPKKPPRP,0.507
9,RRIRKRPPRLPRPRPRPSYPPRP,-0.435
10,RRIRIRPPRLPRPRPRPQKFPRP,-0.0902
11,RRIRWRPPRLPRPRPRPKDYPRP,0.0778
12,RRIRFRPPRLPRPRPRPAFTPRP,-0.224
13,RRIRLRPPRLPRPRPRPYAQPRP,-0.599
14,RRIRHRPPRLPRPRPRPNWRPRP,0.0926
15,RRIRHRPPRLPRPRPRPTHTPRP,-0.00887
16,RRIRDRPPRLPRPRPRPSKVPRP,-0.152
17,RRIRKRPPRLPRPRPRPTGCPRP,0.0439
18,RRIRHRPPRLPRPRPRPCTPPRP,-0.382
19,RRIRFRPPRLPRPRPRPWRRPRP,0.0103
20,RRIRSRPPRLPRPRPRPLVDPRP,0.115
21,RRIRTRPPRLPRPRPRPEYSPRP,-0.0382
22,RRIRYRPPRLPRPRPRPKHVPRP,-0.4
23,RRIRCRPPRLPRPRPRPHKGPRP,-0.363
24,RRIRPRPPRLPRPRPRPQVSPRP,-0.00288
25,RRIRFRPPRLPRPRPRPHTFPRP,-0.778
